In this assay the target is fibrinogen. The assay is described as follows: cell-based or functional assay.

decorin core protein yielded a Final Abs (405 nm) of thrombin-induced clot at [Decorin] 0.2 mM of 0.16 Abs 405 nm, a Final Abs (405 nm) of thrombin-induced clot at [Decorin] 0.4 mM of 0.145 Abs 405 nm, a Final Abs (405 nm) of thrombin-induced clot at [Decorin] 1.0 mM of 0.12 Abs 405 nm and a Final Abs (405 nm) of thrombin-induced clot at [Decorin] 2.0 mM of 0.113 Abs 405 nm. The Rate (mAbs/min) of thrombin-induced clotting at [Decorin] 0.2 mM stood at 61.8 mAbs/min, the Rate (mAbs/min) of thrombin-induced clotting at [Decorin] 0.4 mM is 55 mAbs/min, the Rate (mAbs/min) of thrombin-induced clotting at [Decorin] 1.0 mM amounted to 38.8 mAbs/min and the Rate (mAbs/min) of thrombin-induced clotting at [Decorin] 2.0 mM came to 34.5 mAbs/min.
